From patent US20020045741A1

Biological target: CHO derived N' FLAG-mNR6 (murine NR6 with an N-terminal FLAG sequence) (mouse) (UniProt Q9JM58)
Test: BiaCore biosensor, M2 on the sensorchip; concentrated CHO conditioned medium after M2 affinity column

UniProt Q9JM58, sequence (Q9JM58 other isoform, or with tags, fused parts or gaps limits assumed): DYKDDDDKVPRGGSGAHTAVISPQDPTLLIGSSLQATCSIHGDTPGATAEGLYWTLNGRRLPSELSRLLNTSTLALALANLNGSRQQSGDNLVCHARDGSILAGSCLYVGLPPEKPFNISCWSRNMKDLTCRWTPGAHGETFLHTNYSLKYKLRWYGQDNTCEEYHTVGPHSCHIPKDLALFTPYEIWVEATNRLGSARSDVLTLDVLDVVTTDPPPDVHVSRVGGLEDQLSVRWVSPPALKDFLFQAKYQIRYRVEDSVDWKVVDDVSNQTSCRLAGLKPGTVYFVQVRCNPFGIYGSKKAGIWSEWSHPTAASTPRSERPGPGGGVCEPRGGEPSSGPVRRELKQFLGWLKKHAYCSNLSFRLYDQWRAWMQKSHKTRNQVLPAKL

M2 binding remaining in the unbound fraction after M2 affinity resin: 20%
Substance: anti FLAG peptide M2 antibody (Kodak Eastman, USA)
